Data: article PMC6684798, “Structural basis for the target specificity of actin histidine methyltransferase SETD3” (Nature Communications, 2019)

Target: T1, SETD3 WT (Homo sapiens, UniProt Q86TU7)
T1 construct: GST (cleaved yes); made in house; host or cells: Escherichia coli BL21(DE3) CodonPlus
T1 sequence (Q86TU7 1-594): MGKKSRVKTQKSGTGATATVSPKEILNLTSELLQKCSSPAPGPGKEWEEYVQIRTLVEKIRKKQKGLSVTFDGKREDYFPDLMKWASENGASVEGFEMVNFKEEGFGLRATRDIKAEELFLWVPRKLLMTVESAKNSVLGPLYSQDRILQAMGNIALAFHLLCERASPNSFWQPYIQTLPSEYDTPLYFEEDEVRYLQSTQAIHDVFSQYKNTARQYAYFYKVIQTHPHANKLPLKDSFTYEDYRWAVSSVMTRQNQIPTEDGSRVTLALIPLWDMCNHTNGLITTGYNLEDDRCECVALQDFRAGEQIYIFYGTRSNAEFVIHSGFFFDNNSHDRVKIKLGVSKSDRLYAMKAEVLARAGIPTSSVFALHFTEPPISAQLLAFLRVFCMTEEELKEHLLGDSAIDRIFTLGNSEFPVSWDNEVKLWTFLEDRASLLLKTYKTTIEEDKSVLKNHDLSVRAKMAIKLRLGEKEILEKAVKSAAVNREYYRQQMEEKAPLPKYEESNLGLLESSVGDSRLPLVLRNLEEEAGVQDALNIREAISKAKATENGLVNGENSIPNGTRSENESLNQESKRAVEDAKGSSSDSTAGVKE
Experiment: MALDI-TOF analysis of K73(66–88) methylation by SETD3 WT (Fig. 3e)
Assay type: biochemical
Conditions: pH 10.5, 37 °C, 3 μM WT, 10 µM peptide, 40 µM SAM
Description: Fig. 3 Kinetics of SETD3 on H73 and K73 peptides. a Comparison of activities of three variants (WT, N255A, and N255V) on H73(66–80) peptide. The assays were performed at room temperature (~22 °C) and pH 8.0 using [WT] = 0.18 μM, [N255A] = 0.18 μM, and [N255V] = 0.72 μM. b Comparison of SETD3 WT activities on two K73 peptides (residues 66–80 and 66–88). The assays were performed at 37 °C and pH 10.5 using [WT] = 3 and 15 μM, respectively, for the long and short peptides. c Comparison of activities of three variants (N255A, N255V, and WT) on K73(66–88) peptide. The assays were performed at 37 °C and pH 10.5 using [N255A] = 90 nM, [N255V] = 0.72 μM and [WT] = 4 μM. Data represent the mean ± SD of N number of independent determinations (N = 3 for the WT and N = 2 for the mutants) performed in duplicate. Source data are provided as a Source Data file. d, e Mass spectrometry analysis of K73(66–88) methylation kinetic showing representative spectra at various time points for N255A variant (panel d) and SETD3 WT enzyme (panel e). […]
Recombinant human SETD3 (pXC2003) was expressed as a GST-fusion[22] in Escherichia coli BL21(DE3) CodonPlus^TM cells (Stratagene). […]
Actin K73 peptide (residues 66–88) was used as a substrate for SETD3 (Fig. 3d, e). […] We note that samples diluted into a 0.1% (v/v) TFA solution in water could not be detected by MALDI-TOF, thus the acetonitrile additive is necessary.

K73(66–88): K73-containing actin H73K peptide, residues 66–88 (TLKYPIEKGIVTNWDDMEKIWHH; UniProt P60709 66-88, looked up, variant H73K)
K73 methylation product (2 h): only monomethyl lysine
K73 methylation product (overnight): substantial amounts of unmodified and monomethyl substrates remain, along with a small amount of dimethyl and tri-methyl products
